This note sets out measurements from paper PMC7655804.

The target of this experiment is ferroportin from Philippine tarsier (Carlito syrichta / Tarsius syrichta) (Carlito syrichta (Tarsius syrichta, Philippine tarsier)).

Regarding human hepcidin, the initial rate of Co^2+ transport by TsFpn proteoliposomes with both hepcidin and 11F9 Fab on the external side amounted to 0.032 min⁻¹.

human hepcidin (peptide): the initial rate of Co^2+ transport by TsFpn proteoliposomes with hepcidin on both inside and outside of the liposomes was 0.043 min⁻¹.
